This note sets out measurements from PMC9638900.

Data set [1] addresses T1, PLE2 Int (large serine recombinase) (Vibrio cholerae PLE2 (satellite), UniProt M1T311 1-630).
T1 sequence: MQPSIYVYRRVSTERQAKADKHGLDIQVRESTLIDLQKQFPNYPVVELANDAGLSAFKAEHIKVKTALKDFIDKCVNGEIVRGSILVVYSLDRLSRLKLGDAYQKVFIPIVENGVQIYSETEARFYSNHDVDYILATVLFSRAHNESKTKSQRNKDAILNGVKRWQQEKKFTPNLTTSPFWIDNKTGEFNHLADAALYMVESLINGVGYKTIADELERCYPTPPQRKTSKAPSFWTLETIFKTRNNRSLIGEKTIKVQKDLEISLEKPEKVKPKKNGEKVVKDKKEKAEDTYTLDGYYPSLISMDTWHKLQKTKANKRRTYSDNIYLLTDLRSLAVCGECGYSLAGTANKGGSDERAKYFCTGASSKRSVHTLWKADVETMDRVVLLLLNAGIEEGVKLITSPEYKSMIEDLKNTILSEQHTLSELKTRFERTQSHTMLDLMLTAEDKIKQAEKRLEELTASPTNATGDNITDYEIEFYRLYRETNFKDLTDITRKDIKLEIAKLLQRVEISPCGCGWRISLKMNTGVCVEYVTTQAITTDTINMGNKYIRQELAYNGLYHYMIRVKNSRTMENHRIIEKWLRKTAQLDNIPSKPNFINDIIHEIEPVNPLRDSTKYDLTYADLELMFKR
Description: EMSA. On the technique in general: Mobility shift assays separate free from complexed probe on a gel.

The target in data set [2] is T2, PLE2 IntS12A (Vibrio cholerae PLE2 (satellite), UniProt M1T311 1-630, S12A).
T2 sequence: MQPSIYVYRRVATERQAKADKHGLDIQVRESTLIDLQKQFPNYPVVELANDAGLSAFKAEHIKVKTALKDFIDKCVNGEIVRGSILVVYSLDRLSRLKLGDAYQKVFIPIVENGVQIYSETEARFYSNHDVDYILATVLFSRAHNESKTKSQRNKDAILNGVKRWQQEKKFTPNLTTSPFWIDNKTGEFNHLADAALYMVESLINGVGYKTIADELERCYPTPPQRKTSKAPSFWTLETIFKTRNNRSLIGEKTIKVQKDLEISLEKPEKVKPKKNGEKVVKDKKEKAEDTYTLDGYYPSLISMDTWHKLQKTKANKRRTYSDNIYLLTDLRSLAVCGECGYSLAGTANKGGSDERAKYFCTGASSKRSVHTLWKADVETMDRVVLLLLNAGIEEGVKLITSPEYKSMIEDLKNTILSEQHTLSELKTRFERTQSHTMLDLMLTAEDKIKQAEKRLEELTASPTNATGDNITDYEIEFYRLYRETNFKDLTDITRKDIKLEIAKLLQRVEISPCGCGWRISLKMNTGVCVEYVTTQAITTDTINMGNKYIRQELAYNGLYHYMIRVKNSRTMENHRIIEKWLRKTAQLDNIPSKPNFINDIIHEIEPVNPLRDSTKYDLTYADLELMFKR
Briefly: EMSA.

B1: PLE2 attP EMSA probe (MN262/MN263) (dsDNA)
DNA 1: GATAGGTCATTTTATACTTCTGACAAAGTTACATATGACTTGCATTAGTG
DNA 2: CACTAATGCAAGTCATATGTAACTTTGTCAGAAGTATAAAATGACCTATC
As for B1, the binding result in data set [1] and in data set [2] was “binds” in each case.
